What is called Kd is a measure of binding affinity in units of concentration. A low value points to a tighter complex. For orientation: koff means the first-order rate constant of dissociation. What is called kon is the rate constant with which the complex forms. A higher kon goes with faster complex formation.

Consider five molecules from US20230056252A1 (Gilead, published 2023).

Assay [1] addresses T1, biotinylated Human CD3E and CD3D (Acro Biosystems Cat CDD-H82W1) (human, UniProt P07766 23-126; P04234 22-105).
T1 construct: also called biotinylated CD3
Nature of the assay: SPR (Biacore 4000), CD3 captured on streptavidin chip.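 Further: bispecific antibodies or Fabs injected at several concentrations over CD3 surfaces of varying density, sensorgrams fitted with a simple kinetic model to obtain association, dissociation and equilibrium constants.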 For orientation: SPR reads the build-up and loss of mass on a sensor chip optically.

Assay [2] concerns the target T2, biotinylated CD3 epsilon:delta heterodimer protein (Amsbio AMS.CDD-H52WO) (Homo sapiens (Human), UniProt P07766 23-126; P04234 22-105).
T2 construct: also called CD3 heterodimer
As to the kind of experiment: BLI (Octet), CD3 on SA sensor, bispecific analyte. (BLI is a label-free optical method that tracks binding on a fibre tip over time.)

Assay [3] concerns the target T2, biotinylated CD3 epsilon:delta …. Nature of the assay: BLI (Octet), CD3 on SA sensor, bispecific analyte. This is another data set of the same source.

Like-named read-outs stand apart in the source and are kept apart here.

B1: hPGT121.66 AAS + W/huSP34.34.12 scFv AAS + SAV + R (bispecific antibody, human IgG1, lambda, L234A L235A)
chain: EVQLVESGGGLVQPGGSLRLSCAASGFTFNTYAMNWVRQAPGKGLEWVGRIRSKYNNYATYYAASVKGRFTISRDDSKNSLYLQMNSLKTEDTAMYYCVRHGNFGHSYVSWFAYWGQGTLVTVSSGGGGSGGGGSGGGGSGGGGSQAVVTQPPSLTVSPGGTVTLTCGSSTGAVTTGHYANWVQQKPGQAPRGLIGGTNKRAPWTPARFSGSLSGGKAALTISGAQPEDEAEYYCALWYSNRWVFGGGTKLTVLEPKSSDKTHTCPPCPAPEAAGGPSVFLFPPKPKDTLMISRTPEVTCVVVDVSHEDPEVKFNWYVDGVEVHNAKTKPREEQYNSTYRVVSVLTVLHQDWLNGKEYKCKVSNKALPASIEKTISKAKGQPREPQVYTLPPSREEMTKNQVSLSCAVKGFYPSDIAVEWESNGQPENNYKTTPPVLDSDGSFFLVSKLTVDKSRWQQGNVFSCSVMHEALHNRYTQKSLSLSPGK
heavy: QMQLQESGPGLVKPSETLSLTCSVSGASISDSYWSWIRRSPGKGLEWIGYVHKSGDTNYNPSLKSRVHLSLDTSKNQVSLSLTGVTAADSGKYYCARTLHGRRIYGIVAFNEWFTYFYMDVWGTGTQVTVSSASTKGPSVFPLAPSSKSTSGGTAALGCLVKDYFPEPVTVSWNSGALTSGVHTFPAVLQSSGLYSLSSVVTVPSSSLGTQTYICNVNHKPSNTKVDKKVEPKSCDKTHTCPPCPAPEAAGGPSVFLFPPKPKDTLMISRTPEVTCVVVDVSHEDPEVKFNWYVDGVEVHNAKTKPREEQYNSTYRVVSVLTVLHQDWLNGKEYKCKVSNKALPASIEKTISKAKGQPREPQVYTLPPSREEMTKNQVSLWCLVKGFYPSDIAVEWESNGQPENNYKTTPPVLDSDGSFFLYSKLTVDKSRWQQGNVFSCSVMHEALHNHYTQKSLSLSPGK
light: not shown
In assay [1], B1 returned a Kd of 32 nM, a koff of 0.0119 s⁻¹ and an association rate constant (kon) of 370000 M⁻¹ s⁻¹. In assay [2], this molecule returned a Kd of 9.9 nM, a koff of 0.00431 s⁻¹ and a kon of 433000 M⁻¹ s⁻¹.

B2: hPGT121.66 AAS + W/huSP34.19.8scFv AAS + SAV + R (bispecific antibody, human IgG1, lambda, L234A L235A)
chain: EVQLVESGGGLVQPGGSLRLSCAASGFTFSTYAMNWVRQAPGKGLEWVGRIRSKYNNYATYYAASVKGRFTISRDDSKNTLYLEMNSLRTEDTAVYYCVRHGNFGHSYVSWFAYWGQGTLVTVSSGGGGSGGGGSGGGGSGGGGSQAVVTQEPSLTVSPGGTVTLTCGSSTGAVTTGHYANWVQQKPGQAPRGLIGGTNKRAPGVPARFSGSLLGGKAALTISGAQPEDEAEYYCALWYSNRWVFGGGTKLTVLEPKSSDKTHTCPPCPAPEAAGGPSVFLFPPKPKDTLMISRTPEVTCVVVDVSHEDPEVKFNWYVDGVEVHNAKTKPREEQYNSTYRVVSVLTVLHQDWLNGKEYKCKVSNKALPASIEKTISKAKGQPREPQVYTLPPSREEMTKNQVSLSCAVKGFYPSDIAVEWESNGQPENNYKTTPPVLDSDGSFFLVSKLTVDKSRWQQGNVFSCSVMHEALHNRYTQKSLSLSPGK
heavy: QMQLQESGPGLVKPSETLSLTCSVSGASISDSYWSWIRRSPGKGLEWIGYVHKSGDTNYNPSLKSRVHLSLDTSKNQVSLSLTGVTAADSGKYYCARTLHGRRIYGIVAFNEWFTYFYMDVWGTGTQVTVSSASTKGPSVFPLAPSSKSTSGGTAALGCLVKDYFPEPVTVSWNSGALTSGVHTFPAVLQSSGLYSLSSVVTVPSSSLGTQTYICNVNHKPSNTKVDKKVEPKSCDKTHTCPPCPAPEAAGGPSVFLFPPKPKDTLMISRTPEVTCVVVDVSHEDPEVKFNWYVDGVEVHNAKTKPREEQYNSTYRVVSVLTVLHQDWLNGKEYKCKVSNKALPASIEKTISKAKGQPREPQVYTLPPSREEMTKNQVSLWCLVKGFYPSDIAVEWESNGQPENNYKTTPPVLDSDGSFFLYSKLTVDKSRWQQGNVFSCSVMHEALHNHYTQKSLSLSPGK
light: not shown
In the case of B2, in assay [3], binding was put at a Kd of 14.7 nM, the koff worked out at 0.00104 s⁻¹ and the kon is 72200 M⁻¹ s⁻¹.

B3: hPGT121.66 AAS + W/huSP34.14.8scFv AAS + SAV + R (bispecific antibody, human IgG1, lambda, L234A L235A)
chain: EVQLVESGGGLVQPGGSLSLSCAASGFTFSTYAMNWVRQAPGKGLEWVGRIRSKYNNYATYYAASVKGRFTISRDDSKNTLYLQMNSLRTEDTAVYYCVRHGNFGHSYVSWFAYWGQGTLVTVSSGGGGSGGGGSGGGGSGGGGSQAVVTQEPSLTVSPGGTVTLTCGSSTGAVTTGHYANWVQQKPGQAPRGLIGGTNKRAPGVPARFSGSLLGGKAALTISGAQPEDEAEYYCALWYSNRWVFGGGTKLTVLEPKSSDKTHTCPPCPAPEAAGGPSVFLFPPKPKDTLMISRTPEVTCVVVDVSHEDPEVKFNWYVDGVEVHNAKTKPREEQYNSTYRVVSVLTVLHQDWLNGKEYKCKVSNKALPASIEKTISKAKGQPREPQVYTLPPSREEMTKNQVSLSCAVKGFYPSDIAVEWESNGQPENNYKTTPPVLDSDGSFFLVSKLTVDKSRWQQGNVFSCSVMHEALHNRYTQKSLSLSPGK
heavy: QMQLQESGPGLVKPSETLSLTCSVSGASISDSYWSWIRRSPGKGLEWIGYVHKSGDTNYNPSLKSRVHLSLDTSKNQVSLSLTGVTAADSGKYYCARTLHGRRIYGIVAFNEWFTYFYMDVWGTGTQVTVSSASTKGPSVFPLAPSSKSTSGGTAALGCLVKDYFPEPVTVSWNSGALTSGVHTFPAVLQSSGLYSLSSVVTVPSSSLGTQTYICNVNHKPSNTKVDKKVEPKSCDKTHTCPPCPAPEAAGGPSVFLFPPKPKDTLMISRTPEVTCVVVDVSHEDPEVKFNWYVDGVEVHNAKTKPREEQYNSTYRVVSVLTVLHQDWLNGKEYKCKVSNKALPASIEKTISKAKGQPREPQVYTLPPSREEMTKNQVSLWCLVKGFYPSDIAVEWESNGQPENNYKTTPPVLDSDGSFFLYSKLTVDKSRWQQGNVFSCSVMHEALHNHYTQKSLSLSPGK
light: not shown
In assay [3], B3 yielded a Kd of 24.3 nM, a koff of 0.000932 s⁻¹ and a kon of 39000 M⁻¹ s⁻¹.

B4: hPGT121.66 AAS + W/huSP34.34.10 scFv AAS + SAV + R (bispecific antibody, human IgG1, lambda, L234A L235A)
chain: EVQLVESGGGLVQPGGSLRLSCAASGFTFNTYAMNWVRQAPGKGLEWVGRIRSKYNNYATYYAASVKGRFTISRDDSKNSLYLQMNSLKTEDTAMYYCVRHGNFGHSYVSWFAYWGQGTLVTVSSGGGGSGGGGSGGGGSGGGGSQAVVTQPPSLTVSPGGTVTLTCGSSTGAVTTGHYANWVQQKPGQAPRGLIGGTNKRAPGVPARFSGSLSGGKAALTISGAQPEDEAEYYCALWYSNRWVFGGGTKLTVLEPKSSDKTHTCPPCPAPEAAGGPSVFLFPPKPKDTLMISRTPEVTCVVVDVSHEDPEVKFNWYVDGVEVHNAKTKPREEQYNSTYRVVSVLTVLHQDWLNGKEYKCKVSNKALPASIEKTISKAKGQPREPQVYTLPPSREEMTKNQVSLSCAVKGFYPSDIAVEWESNGQPENNYKTTPPVLDSDGSFFLVSKLTVDKSRWQQGNVFSCSVMHEALHNRYTQKSLSLSPGK
heavy: QMQLQESGPGLVKPSETLSLTCSVSGASISDSYWSWIRRSPGKGLEWIGYVHKSGDTNYNPSLKSRVHLSLDTSKNQVSLSLTGVTAADSGKYYCARTLHGRRIYGIVAFNEWFTYFYMDVWGTGTQVTVSSASTKGPSVFPLAPSSKSTSGGTAALGCLVKDYFPEPVTVSWNSGALTSGVHTFPAVLQSSGLYSLSSVVTVPSSSLGTQTYICNVNHKPSNTKVDKKVEPKSCDKTHTCPPCPAPEAAGGPSVFLFPPKPKDTLMISRTPEVTCVVVDVSHEDPEVKFNWYVDGVEVHNAKTKPREEQYNSTYRVVSVLTVLHQDWLNGKEYKCKVSNKALPASIEKTISKAKGQPREPQVYTLPPSREEMTKNQVSLWCLVKGFYPSDIAVEWESNGQPENNYKTTPPVLDSDGSFFLYSKLTVDKSRWQQGNVFSCSVMHEALHNHYTQKSLSLSPGK
light: not shown
In the case of B4, in assay [1], the affinity, expressed as Kd, was 3.9 nM; the koff came out at 0.0102 s⁻¹; the kon is 2.6e+06 M⁻¹ s⁻¹. Moreover, in assay [2], the affinity, expressed as Kd, was 8.4 nM; the dissociation rate constant (koff) was 0.00083 s⁻¹; the kon amounted to 120000 M⁻¹ s⁻¹.

B5: hPGT121.66 AAS + W/huSP34.3.13 scFv AAS + SAV + R (bispecific antibody, human IgG1, lambda, L234A L235A)
chain: EVQLVESGGGLVQPGGSLRLSCAASGFTFNTYAMNWVRQAPGKGLEWVGRIRSKYNNYATYYADSVKGRFTISRDDSKNSLYLQMNSLRTEDTAVYYCVRHGNFGHSYVSWFAYWGQGTLVTVSSGGGGSGGGGSGGGGSGGGGSQAVVTQEPSLTVSPGGTVTLTCGSSTGAVTTGHYANWVQQKPGQAPRGLIGGTSNRAPGVPARFSGSLLGGKAALTISGAQPEDEAEYYCALWYSNRWVFGGGTKLTVLEPKSSDKTHTCPPCPAPEAAGGPSVFLFPPKPKDTLMISRTPEVTCVVVDVSHEDPEVKFNWYVDGVEVHNAKTKPREEQYNSTYRVVSVLTVLHQDWLNGKEYKCKVSNKALPASIEKTISKAKGQPREPQVYTLPPSREEMTKNQVSLSCAVKGFYPSDIAVEWESNGQPENNYKTTPPVLDSDGSFFLVSKLTVDKSRWQQGNVFSCSVMHEALHNRYTQKSLSLSPGK
heavy: QMQLQESGPGLVKPSETLSLTCSVSGASISDSYWSWIRRSPGKGLEWIGYVHKSGDTNYNPSLKSRVHLSLDTSKNQVSLSLTGVTAADSGKYYCARTLHGRRIYGIVAFNEWFTYFYMDVWGTGTQVTVSSASTKGPSVFPLAPSSKSTSGGTAALGCLVKDYFPEPVTVSWNSGALTSGVHTFPAVLQSSGLYSLSSVVTVPSSSLGTQTYICNVNHKPSNTKVDKKVEPKSCDKTHTCPPCPAPEAAGGPSVFLFPPKPKDTLMISRTPEVTCVVVDVSHEDPEVKFNWYVDGVEVHNAKTKPREEQYNSTYRVVSVLTVLHQDWLNGKEYKCKVSNKALPASIEKTISKAKGQPREPQVYTLPPSREEMTKNQVSLWCLVKGFYPSDIAVEWESNGQPENNYKTTPPVLDSDGSFFLYSKLTVDKSRWQQGNVFSCSVMHEALHNHYTQKSLSLSPGK
light: not shown
With B5, in assay [1], the affinity, expressed as Kd, was 2.4 nM; the koff is 0.0084 s⁻¹; the kon stood at 3.6e+06 M⁻¹ s⁻¹. Besides, in assay [2], the Kd came to 16.8 nM, the koff was 0.00171 s⁻¹ and the on-rate constant (kon) was 106000 M⁻¹ s⁻¹.
